In patent US20190161753:

Target: T1, The other proteins of the P. furiosus Cmr effector complex (Cmr1, Cmr3, Cmr4, Cmr5, Cmr6, with crRNA)
T1 chain 1: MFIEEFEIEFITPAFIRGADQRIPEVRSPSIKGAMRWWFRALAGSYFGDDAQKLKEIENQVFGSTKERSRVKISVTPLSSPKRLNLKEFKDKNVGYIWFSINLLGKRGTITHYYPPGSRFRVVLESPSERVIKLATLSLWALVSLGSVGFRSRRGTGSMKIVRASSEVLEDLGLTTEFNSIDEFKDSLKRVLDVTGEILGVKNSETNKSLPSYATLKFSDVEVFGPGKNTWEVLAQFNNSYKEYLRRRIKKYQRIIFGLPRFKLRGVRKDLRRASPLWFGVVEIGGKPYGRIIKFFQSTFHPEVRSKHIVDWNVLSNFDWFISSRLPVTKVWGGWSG
T1 chain 2: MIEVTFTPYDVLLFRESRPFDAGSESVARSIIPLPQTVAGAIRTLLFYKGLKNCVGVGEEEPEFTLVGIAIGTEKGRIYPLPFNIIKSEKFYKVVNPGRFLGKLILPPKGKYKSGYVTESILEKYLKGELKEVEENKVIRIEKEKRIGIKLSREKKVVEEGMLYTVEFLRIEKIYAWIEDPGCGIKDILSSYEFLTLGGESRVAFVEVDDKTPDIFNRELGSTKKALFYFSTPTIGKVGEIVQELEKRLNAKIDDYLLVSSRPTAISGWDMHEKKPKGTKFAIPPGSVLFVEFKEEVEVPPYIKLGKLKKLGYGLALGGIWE
T1 chain 3: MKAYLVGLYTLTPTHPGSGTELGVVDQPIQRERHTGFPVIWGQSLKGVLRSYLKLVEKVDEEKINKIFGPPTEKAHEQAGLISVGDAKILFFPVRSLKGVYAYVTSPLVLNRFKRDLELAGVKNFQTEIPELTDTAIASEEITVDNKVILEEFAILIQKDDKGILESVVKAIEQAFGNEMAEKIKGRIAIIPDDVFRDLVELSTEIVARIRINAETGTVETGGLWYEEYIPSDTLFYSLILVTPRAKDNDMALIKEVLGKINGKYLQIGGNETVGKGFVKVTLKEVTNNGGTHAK
T1 chain 4: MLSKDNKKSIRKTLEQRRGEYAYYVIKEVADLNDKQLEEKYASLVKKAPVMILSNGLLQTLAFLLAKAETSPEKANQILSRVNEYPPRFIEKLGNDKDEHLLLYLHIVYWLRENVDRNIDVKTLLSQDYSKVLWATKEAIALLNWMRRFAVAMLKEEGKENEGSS
T1 chain 5: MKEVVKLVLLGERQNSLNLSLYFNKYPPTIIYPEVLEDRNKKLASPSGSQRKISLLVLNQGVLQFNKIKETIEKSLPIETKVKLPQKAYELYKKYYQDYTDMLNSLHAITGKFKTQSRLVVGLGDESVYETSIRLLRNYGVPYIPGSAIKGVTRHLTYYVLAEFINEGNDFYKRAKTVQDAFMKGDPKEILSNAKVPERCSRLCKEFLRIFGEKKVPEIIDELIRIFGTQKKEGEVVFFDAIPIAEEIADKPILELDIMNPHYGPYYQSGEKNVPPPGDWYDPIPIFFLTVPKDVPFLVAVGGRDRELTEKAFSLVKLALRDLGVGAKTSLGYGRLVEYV

B1: Pyrococcus furiosus Cmr2 protein, wild type (PF1129) (protein)
chain: MVNIKEKLFVYLHDPPDKALKIENHEERSKKILSSGNIQYSRTDKVKQADALSSKTQRFIIRTKENKEPVIDFLGRSSGKYFHVGYPVFIHPISTEIKRYETLEKYIDLGRSNRGERFVNEFLERVSKLEGDVLKEVFEDASNKFKGEESKQWAYIWQFYPVKLKEGVKEFAKSELKLKEEEAEKFAEEFVNLPADTRFPDHAIWTHLDLTSALSVKDPTLLRIKIVPVQPFIANSRKQLDLWASSHLLSMLMYKALEVIVDKFGPEHVIYPSLRDQPFFLKFYLGENIGDEILVANLPNKALAIVSGKEAEKIEEEIKKRIRDFLLQLYREAVDWAVENGVVKVDRSEKDSMLKEAYLKIVREYFTVSITWVSLSEKEDIYQVTENAGLSDEDVKKWLKFAEKKENSRVLERIAIYPLLVKILDSLGERKVTEERFEKSEQLKGWKCHVCGENLAIFGDMYDHDNLKSLWLDEEPLCPMCLIKRYYPVWIRSKTGQKIRFESVVDVALLYKNWRKIFDEKYGKDLVSKAREVSEDFVKDNMLVDSDLYYSSTWESGLSKKLKNKKEIDEEKVKEVVDFLNAAYKEIGNPPKYYAILVMDGDDMGKVISGEVLGEISTRIHPNIRDYVEIPEAKYYSTPQVHVAISQALANFSIREVRSVVKDEGLLIYAGGDDVLAILPVDKALEVAYKIRKEFGKSFENGSLLPGWKLSAGILIVHYKHPLYDALEKARDLLNNKAKNVPGKDTLAIGLLKRSGSYYISLVGWELIRVFYNSELRKKLLEEKGGVGKRFIYHVLREVDTWPKVGIDEMLKFEVIRHIRGRNKEETKELREKIYGEIKDLLEHVRGNNEVEKVRGLFTFLKIITDAEVFP
B1 was tested, and the “ssDNA nuclease activity (cleavage of 5' radiolabeled ssDNA oligo, denaturing PAGE)” value was “The reconstituted Cmr complex (including Cmr1-6 and crRNA) displays very little ssDNA nuclease activity in comparison with approximately equimolar concentrations of Cmr2 alone”.
